Results published in patent EP4242303A1 (Novozymes A/S, dated 2023).
Where two headings read alike, the source gives them in different places.

T1: deamidase polypeptide from Chryseobacterium defluvii (deamidase domain of the fusion polypeptide SEQ ID NO: … (Chryseobacterium defluvii))
T1 chain: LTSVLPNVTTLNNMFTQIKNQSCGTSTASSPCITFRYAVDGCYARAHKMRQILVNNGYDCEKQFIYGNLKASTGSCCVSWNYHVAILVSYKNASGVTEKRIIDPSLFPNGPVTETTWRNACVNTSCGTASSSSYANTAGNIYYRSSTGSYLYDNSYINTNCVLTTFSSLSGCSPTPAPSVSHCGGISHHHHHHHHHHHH

T2: deamidase polypeptide from Chryseobacterium gambrini (deamidase domain of the fusion polypeptide SEQ ID NO: … (Chryseobacterium gambrini))
T2 chain: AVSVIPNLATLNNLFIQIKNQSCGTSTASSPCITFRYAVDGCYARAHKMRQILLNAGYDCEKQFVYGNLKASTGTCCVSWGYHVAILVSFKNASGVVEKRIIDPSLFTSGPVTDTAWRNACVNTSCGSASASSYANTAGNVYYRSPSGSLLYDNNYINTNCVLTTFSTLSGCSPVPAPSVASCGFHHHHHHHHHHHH

T3: deamidase polypeptide from Chryseobacterium sp-62563 (deamidase domain of the pro-form SEQ ID NO: 5) (Chryseobacterium sp-62563)
T3 chain: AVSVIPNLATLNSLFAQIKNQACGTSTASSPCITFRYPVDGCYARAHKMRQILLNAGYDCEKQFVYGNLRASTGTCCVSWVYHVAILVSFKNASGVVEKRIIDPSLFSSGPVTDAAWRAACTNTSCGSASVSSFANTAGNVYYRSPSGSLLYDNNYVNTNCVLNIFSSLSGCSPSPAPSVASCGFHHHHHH

T4: deamidase polypeptide from Chryseobacterium culicis (deamidase domain of the fusion polypeptide SEQ ID NO: 15) (Chryseobacterium culicis)
T4 chain: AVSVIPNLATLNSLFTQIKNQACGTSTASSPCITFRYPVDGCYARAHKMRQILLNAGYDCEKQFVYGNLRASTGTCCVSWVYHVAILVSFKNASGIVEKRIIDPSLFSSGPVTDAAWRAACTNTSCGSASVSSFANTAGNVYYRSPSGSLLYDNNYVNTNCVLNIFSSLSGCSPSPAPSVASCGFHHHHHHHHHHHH


Tests used:
Test in all cases: cell-based or functional assay
[1] = target: T1, deamidase polypeptide from …
[2] = target: T2, deamidase polypeptide from …
[3] = target: T3, deamidase polypeptide from …
[4] = target: T3, deamidase polypeptide from …
[5] = target: T3, deamidase polypeptide from …
[6] = target: T3, deamidase polypeptide from …
[7] = target: T4, deamidase polypeptide from …

Binder	NanoDSF thermal unfolding temperature [4]	Leakage activity [5]	Relative activity of "activated" sample (% initial rate) [6]	other results
propeptide from Chryseobacterium defluvii (propeptide domain of the fusion polypeptide SEQ ID NO: 20) (other) ATNQDVVGKENTSNHVAARDFGKTVPVGINEENGTLKVSFILSAQFYEIKPSKENEEYISLIRQAIQNESPIHVFMKLNSNEIVKVEKGTEEDVKYFRSILTKEVKEENRK				NanoDSF thermal unfolding temperature [1]: 89 °C
propeptide from Chryseobacterium gambrini (propeptide domain of the fusion polypeptide SEQ ID NO: 10) (other) NQDPNLVVKENNENAMRDFGSTIPVGIQKEGNVLKVSFIISAQFYEIKDSKENEAFISMIKSAIENETPVHVFLKKNSNEIAKVEKATDEDVTYFKSIFTKEVKEENRK				NanoDSF thermal unfolding temperature [2]: 89.3 °C
propeptide from Chryseobacterium sp-62563 (wildtype propeptide domain of the protein glutamine deamidase pro-form SEQ ID NO: 5) (other) NQDPNLVAKESNETAMKDFGKTVPVGIEKEDGKFKISFMVTAQPYEIKDSKENAAYISMIKTAVENETPIHVFLKANTNEIAKVDKATDDDIRYFKSVFTKEVKEENRK				NanoDSF thermal unfolding temperature [3]: 85.3 °C
variant deamidase propeptide Y45G of Chryseobacterium sp-62563 (SEQ ID NO: 2) (other) NQDPNLVAKESNETAMKDFGKTVPVGIEKEDGKFKISFMVTAQPGEIKDSKENAAYISMIKTAVENETPIHVFLKANTNEIAKVDKATDDDIRYFKSVFTKEVKEENRK	65.2 °C	2%	≥ 100%	
variant deamidase propeptide F99A of Chryseobacterium sp-62563 (SEQ ID NO: 2) (other) NQDPNLVAKESNETAMKDFGKTVPVGIEKEDGKFKISFMVTAQPYEIKDSKENAAYISMIKTAVENETPIHVFLKANTNEIAKVDKATDDDIRYFKSVATKEVKEENRK	76.4 °C	20%	≥ 100%	
variant deamidase propeptide F99G of Chryseobacterium sp-62563 (SEQ ID NO: 2) (other) NQDPNLVAKESNETAMKDFGKTVPVGIEKEDGKFKISFMVTAQPYEIKDSKENAAYISMIKTAVENETPIHVFLKANTNEIAKVDKATDDDIRYFKSVGTKEVKEENRK	74.1 °C	20%	≥ 100%	
variant deamidase propeptide Y94P of Chryseobacterium sp-62563 (SEQ ID NO: 2) (other) NQDPNLVAKESNETAMKDFGKTVPVGIEKEDGKFKISFMVTAQPYEIKDSKENAAYISMIKTAVENETPIHVFLKANTNEIAKVDKATDDDIRPFKSVFTKEVKEENRK	75.2 °C	23%	≥ 100%	
variant deamidase propeptide F99K of Chryseobacterium sp-62563 (SEQ ID NO: 2) (other) NQDPNLVAKESNETAMKDFGKTVPVGIEKEDGKFKISFMVTAQPYEIKDSKENAAYISMIKTAVENETPIHVFLKANTNEIAKVDKATDDDIRYFKSVKTKEVKEENRK	75.4 °C	32%	≥ 100%	
variant deamidase propeptide V23S of Chryseobacterium sp-62563 (SEQ ID NO: 2) (other) NQDPNLVAKESNETAMKDFGKTSPVGIEKEDGKFKISFMVTAQPYEIKDSKENAAYISMIKTAVENETPIHVFLKANTNEIAKVDKATDDDIRYFKSVFTKEVKEENRK	69.8 °C	10%	≥ 100%	
variant deamidase propeptide F38C of Chryseobacterium sp-62563 (SEQ ID NO: 2) (other) NQDPNLVAKESNETAMKDFGKTVPVGIEKEDGKFKISCMVTAQPYEIKDSKENAAYISMIKTAVENETPIHVFLKANTNEIAKVDKATDDDIRYFKSVFTKEVKEENRK	76.2 °C	26%	≥ 100%	
variant deamidase propeptide Y45T of Chryseobacterium sp-62563 (SEQ ID NO: 2) (other) NQDPNLVAKESNETAMKDFGKTVPVGIEKEDGKFKISFMVTAQPTEIKDSKENAAYISMIKTAVENETPIHVFLKANTNEIAKVDKATDDDIRYFKSVFTKEVKEENRK	73.7 °C	2%	≥ 100%	
propeptide from Chryseobacterium culicis (propeptide domain of the fusion polypeptide SEQ ID NO: 15) (other) NQDPNLVAKESNEIAMKDFGKTVPVGIEKEEGKFKVSFMVSAQPYHIKDSKENAGYISMIRQAVENETPVHIFLKTNTNEIAKVDKPTDDDIRYFKSVFTKEVKEENRK				NanoDSF thermal unfolding temperature [7]: 85.2 °C
